Reference: paper PMC8642242

Biological target: SARS-CoV-2 stabilized S trimer (HexaPro) (SARS-CoV-2)

| Substance | IC50 of neutralization of SARS-CoV-2 (IL1/2020) pseudovirus (pSV assay) |
| --- | --- |
| WRAIR-2173 (human IgG1) (antibody) | 4 ng ml^−1 |
| WRAIR-2165 (human IgG1) (antibody) | 10 ng ml^−1 |
| WRAIR-2123 (human IgG1) (antibody) | 4 ng ml^−1 |
